B1: human p16 (other)
chain: MEPAAGSSMEPSADWLATAAARGRVEEVRALLEAGALPNAPNSYGRRPIQVMMMGSARVAELLLLHGAEPNCADPATLTRPVHDAAREGFLDTLVVLHRAGARLDVRDAWGRLPVDLAEELGHRDVARYLRAAAGGTRGSNHARIDAAEGPSDIPD

Target: CDK4/cyclin D1 complex (UniProt P11802 1-303; P24385 1-295)
Assay: cell-based or functional assay

Sequence of CDK4/cyclin D1 complex (P11802 whole entry, chain 1 of 2): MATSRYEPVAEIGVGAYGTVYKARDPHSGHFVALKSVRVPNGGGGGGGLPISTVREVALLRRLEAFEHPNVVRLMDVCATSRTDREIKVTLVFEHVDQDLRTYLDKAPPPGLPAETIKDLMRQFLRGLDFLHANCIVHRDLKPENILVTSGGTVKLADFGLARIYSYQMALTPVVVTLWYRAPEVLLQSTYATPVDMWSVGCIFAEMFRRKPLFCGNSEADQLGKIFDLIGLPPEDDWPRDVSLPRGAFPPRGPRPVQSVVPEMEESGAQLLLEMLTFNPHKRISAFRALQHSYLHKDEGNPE
Sequence of CDK4/cyclin D1 complex (P24385 whole entry, chain 2 of 2): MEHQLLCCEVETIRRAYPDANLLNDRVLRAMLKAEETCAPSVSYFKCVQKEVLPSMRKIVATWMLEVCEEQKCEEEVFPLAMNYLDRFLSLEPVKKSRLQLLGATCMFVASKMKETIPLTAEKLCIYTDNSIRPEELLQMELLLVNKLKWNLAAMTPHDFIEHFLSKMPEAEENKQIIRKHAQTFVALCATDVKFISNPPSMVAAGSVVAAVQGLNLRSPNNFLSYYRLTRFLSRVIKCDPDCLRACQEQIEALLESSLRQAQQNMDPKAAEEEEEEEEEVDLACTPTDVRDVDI

| Molecule | IC50, in vitro kinase activity |
| --- | --- |
| human p27 (from UniProt P46527 1-198) | 63 nM |
| B1 | 250 nM |
